Experimental data reported in patent publication US20170037083A1 (AVIXGEN, published 2017).
Values belong to the binder of their own block, whether it stands above or below them. Where no end group is shown, it is not given here.

Key:
VEGFR-1 = molecular target: T1, VEGFR-1 (human, UniProt P17948 27-1338); experiment: streptavidin-agarose pull-down from HUVEC lysate with biotin-labeled RLYE, immunoblot for VEGFR-1
T1 construct: whole, on cells; In detergent lysate of HUVECs in the pull-down assay; on IM-9 and RPMI 8226 cells and HUVECs in the functional assays; also called VEGF receptor-1
T1 sequence (P17948 27-1338): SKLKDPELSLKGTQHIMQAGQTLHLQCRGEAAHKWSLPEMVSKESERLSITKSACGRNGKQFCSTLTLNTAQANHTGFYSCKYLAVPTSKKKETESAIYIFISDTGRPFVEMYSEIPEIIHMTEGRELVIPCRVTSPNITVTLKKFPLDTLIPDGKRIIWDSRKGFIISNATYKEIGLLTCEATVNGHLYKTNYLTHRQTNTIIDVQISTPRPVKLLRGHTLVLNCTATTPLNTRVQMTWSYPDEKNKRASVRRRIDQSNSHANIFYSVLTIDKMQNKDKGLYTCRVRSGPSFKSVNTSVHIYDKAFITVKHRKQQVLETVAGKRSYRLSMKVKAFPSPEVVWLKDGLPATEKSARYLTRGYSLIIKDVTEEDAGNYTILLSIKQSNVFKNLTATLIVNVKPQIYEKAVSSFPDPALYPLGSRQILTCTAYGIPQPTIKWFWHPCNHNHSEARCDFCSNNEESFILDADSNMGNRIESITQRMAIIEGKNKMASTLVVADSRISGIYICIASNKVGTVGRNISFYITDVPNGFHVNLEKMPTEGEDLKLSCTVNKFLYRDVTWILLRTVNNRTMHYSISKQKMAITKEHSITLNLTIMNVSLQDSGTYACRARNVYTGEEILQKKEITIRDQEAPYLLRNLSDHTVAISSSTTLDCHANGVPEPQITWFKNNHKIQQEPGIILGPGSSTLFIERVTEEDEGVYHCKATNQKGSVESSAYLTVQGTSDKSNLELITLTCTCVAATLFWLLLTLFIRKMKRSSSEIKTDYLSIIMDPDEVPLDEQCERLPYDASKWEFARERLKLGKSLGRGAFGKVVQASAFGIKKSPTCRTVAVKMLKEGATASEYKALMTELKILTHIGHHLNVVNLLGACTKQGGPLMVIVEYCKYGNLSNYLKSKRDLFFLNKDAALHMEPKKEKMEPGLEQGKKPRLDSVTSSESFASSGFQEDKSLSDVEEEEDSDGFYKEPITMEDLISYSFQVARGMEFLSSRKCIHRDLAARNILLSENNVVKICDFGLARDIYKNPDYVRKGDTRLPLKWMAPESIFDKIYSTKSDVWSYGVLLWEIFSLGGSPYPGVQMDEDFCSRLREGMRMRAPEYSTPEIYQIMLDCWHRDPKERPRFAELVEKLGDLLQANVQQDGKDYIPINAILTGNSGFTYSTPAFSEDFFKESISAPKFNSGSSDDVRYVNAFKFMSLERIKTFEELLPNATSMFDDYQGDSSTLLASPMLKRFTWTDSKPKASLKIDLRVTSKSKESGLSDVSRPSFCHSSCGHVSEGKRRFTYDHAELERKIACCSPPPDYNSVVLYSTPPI
Procedure: HUVECs were lysed in a pull-down buffer [50 mM Tris-HCl (pH 8.0), 150 mM sodium chloride, 1.0% NP-40, 0.5% sodium deoxycholate and 0.1% SDS]. A lysate ([…] of proteins) was reacted with biotin-labeled RLYE (0.15 or 1.5 nM) for 1 hour, and reacted with streptavidin-agarose beads ([…]) at 4° C. for 1 hour. RLYE-binding proteins were isolated from the cell lysate through centrifugation, washed, and then boiled for 10 minutes. The bead-binding proteins were isolated by SDS-PAGE, and immunoblotting was performed with an antibody with respect to VEGFR-2 or VEGFR-1.
(§1) Subsequently, it was investigated whether RLYE (SEQ ID NO: 2) interacts with VEGFR-2 expressed in HUVECs. HUVECs were cultured with FITC-RLYE before or after VEGF-A treatment, and FACS was performed to examine an amount of RLYE (SEQ ID NO: 2) binding to the HUVECs. […] To examine binding between RLYE (SEQ ID NO: 2) and VEGF receptors, a pull-down assay was performed. […] Therefore, the binding between RLYE (SEQ ID NO: 2) and VEGFR-2 was identified as a strong bond having a small dissociation coefficient (194 nM), and it was also seen that RLYE (SEQ ID NO: 2) binds to VEGFR-2 at the same positions to which VEGF-A/C binds (immunoglobulin homology domains D2 and D3) (see FIG. 10A).

[1] = molecular target: T2, VEGFR-2 expressed in HUVECs (human, UniProt P35968 20-1356); experiment: flow cytometry (FACS) on HUVECs, FITC-RLYE 15 nM, VEGF-A 100 ng/ml added before or after
T2 construct: whole, on cells; On the surface of HUVECs in FACS, confocal microscopy and the cell assays; in detergent lysate of HUVECs in the pull-down assay; also called VEGF receptor-2
T2 sequence (P35968 20-1356): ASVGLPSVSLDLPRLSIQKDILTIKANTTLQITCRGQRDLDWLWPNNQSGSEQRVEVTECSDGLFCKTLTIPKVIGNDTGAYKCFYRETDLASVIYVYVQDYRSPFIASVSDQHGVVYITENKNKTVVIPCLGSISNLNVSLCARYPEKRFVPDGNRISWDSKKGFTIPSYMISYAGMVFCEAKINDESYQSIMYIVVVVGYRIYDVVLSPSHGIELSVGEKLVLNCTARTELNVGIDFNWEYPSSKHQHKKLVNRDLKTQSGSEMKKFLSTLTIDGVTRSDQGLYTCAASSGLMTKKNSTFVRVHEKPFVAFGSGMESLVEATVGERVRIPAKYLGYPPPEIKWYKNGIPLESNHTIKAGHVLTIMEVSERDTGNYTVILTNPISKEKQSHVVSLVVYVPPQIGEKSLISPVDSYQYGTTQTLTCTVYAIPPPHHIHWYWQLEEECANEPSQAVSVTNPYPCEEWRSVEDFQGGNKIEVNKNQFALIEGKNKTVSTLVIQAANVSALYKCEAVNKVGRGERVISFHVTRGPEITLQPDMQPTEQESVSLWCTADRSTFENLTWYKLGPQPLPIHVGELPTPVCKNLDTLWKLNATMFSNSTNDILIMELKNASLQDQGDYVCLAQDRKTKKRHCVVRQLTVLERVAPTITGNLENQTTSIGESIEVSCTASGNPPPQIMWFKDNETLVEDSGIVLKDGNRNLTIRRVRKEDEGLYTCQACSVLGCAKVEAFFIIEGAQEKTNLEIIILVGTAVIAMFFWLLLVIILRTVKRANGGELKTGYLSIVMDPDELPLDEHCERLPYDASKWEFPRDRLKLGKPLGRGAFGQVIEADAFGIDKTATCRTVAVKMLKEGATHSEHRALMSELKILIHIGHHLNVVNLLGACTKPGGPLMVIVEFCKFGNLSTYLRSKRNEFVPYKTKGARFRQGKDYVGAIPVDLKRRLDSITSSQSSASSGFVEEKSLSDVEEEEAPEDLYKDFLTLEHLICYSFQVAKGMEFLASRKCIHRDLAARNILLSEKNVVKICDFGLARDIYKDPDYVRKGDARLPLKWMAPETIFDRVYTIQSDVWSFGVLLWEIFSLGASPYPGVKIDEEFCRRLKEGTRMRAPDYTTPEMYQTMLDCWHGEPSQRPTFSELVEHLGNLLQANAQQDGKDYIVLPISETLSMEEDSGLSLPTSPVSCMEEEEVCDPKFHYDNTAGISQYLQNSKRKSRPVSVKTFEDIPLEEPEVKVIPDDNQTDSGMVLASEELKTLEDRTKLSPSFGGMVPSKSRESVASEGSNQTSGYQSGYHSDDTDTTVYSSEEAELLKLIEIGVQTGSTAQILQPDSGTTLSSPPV
Procedure: HUVECs were cultured in a 60-mm culture plate for 24 hours. The cells were isolated from the plate with 5 mM EDTA-containing phosphate-buffered saline (PBS), washed with PBS three times, and suspended in 2% FBS/0.1% bovine serum albumin-containing PBS. Afterward, before or after the reaction with FITC-conjugated RLYE (15 nM), the cells were treated with VEGF (100 ng/ml), stored on ice for 30 minutes, fixed in 2% paraformaldehyde, and assessed with a fluorescence activated cell sorter (FACS Calibur, Becton Dickinson) by flow cytometry.
as §1

[2] = molecular target: T2, VEGFR-2 expressed in HUVECs; experiment: cell-based or functional assay
rhVEGFR-2 = molecular target: T3, rhVEGFR-2 (human, UniProt P35968 20-764, limits assumed); experiment: SPR (BIAcore), rhVEGFR-2 immobilised on the chip, RLYE injected
T3 construct: Immobilised on the carboxymethylated dextran chip for SPR; also called recombinant human VEGFR-2; VEGF receptor-2
T3 sequence (P35968 20-764 limits assumed): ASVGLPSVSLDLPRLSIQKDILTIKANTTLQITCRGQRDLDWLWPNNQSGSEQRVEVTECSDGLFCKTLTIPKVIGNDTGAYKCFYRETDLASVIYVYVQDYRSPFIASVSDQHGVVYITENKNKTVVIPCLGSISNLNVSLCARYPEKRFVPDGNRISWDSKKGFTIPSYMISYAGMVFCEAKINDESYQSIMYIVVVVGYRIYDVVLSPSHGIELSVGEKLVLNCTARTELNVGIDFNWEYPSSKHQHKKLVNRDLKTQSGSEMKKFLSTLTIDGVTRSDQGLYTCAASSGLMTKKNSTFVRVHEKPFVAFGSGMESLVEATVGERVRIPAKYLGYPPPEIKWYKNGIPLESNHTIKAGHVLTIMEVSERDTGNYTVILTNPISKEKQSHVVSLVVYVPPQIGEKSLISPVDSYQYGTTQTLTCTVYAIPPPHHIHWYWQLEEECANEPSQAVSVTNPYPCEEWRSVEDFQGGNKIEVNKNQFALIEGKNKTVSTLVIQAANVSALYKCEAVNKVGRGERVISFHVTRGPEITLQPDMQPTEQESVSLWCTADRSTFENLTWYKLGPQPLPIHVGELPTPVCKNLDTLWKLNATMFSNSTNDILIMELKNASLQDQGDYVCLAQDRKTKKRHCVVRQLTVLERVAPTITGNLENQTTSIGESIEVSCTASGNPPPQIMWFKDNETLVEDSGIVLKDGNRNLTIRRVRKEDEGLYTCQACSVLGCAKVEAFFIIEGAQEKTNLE
Procedure: Binding dynamics and affinity of RLYE to rhVEGFR-2 were evaluated with BIAcore AB (Sweden). A carboxymethylated dextran biosensor chip (CMS, BIAcore AB) was activated with 1-ethyl-3-(3-dimethylaminopropyl)carbodiimide and N-hydroxysuccinimide according to the manufacturer's manual. The rhVEGFR-2 (1 ng/μl, 10 mM Hepes, 150 mM NaCl, 3 mM EDTA, 0.005% Tween-20-containing HBS-EP buffer) was injected over the activated CMS chip for fixation. Various concentrations of an RLYE solution was injected over the rhVEGFR-2-fixed center chip with a flow rate of 25 μl/min, and binding and non-binding characteristics between RLYE and the rhVEGFR-2 were analyzed. The peptide bonds were measured in arbitrary response units, and after the injection of each sample (120 sec), the HBS-EP buffer was passed over a sensor surface to monitor dissociation. The equilibrium dissociation constant (Kd) was derived to a fixing step-combined model.
Meanwhile, the interaction between RLYE (SEQ ID NO: 2) and rhVEGFR-2 was examined by SPR analysis.

binding result (VEGFR-1): no binding
B1: biotin-labeled RLYE (peptide)
peptide: RLYE
modifications: also: biotin-labeled, site not given here
notes: Used at 0.15 or 1.5 nM in the pull-down from HUVEC lysate with streptavidin-agarose beads; also called biotinylated RLYE peptide

binding result [1]: binds
B2: FITC-conjugated RLYE (peptide)
peptide: RLYE
modifications: also: FITC-conjugated, site not given here
notes: Used at 15 nM in FACS and at 100 ng/ml in confocal microscopy on HUVECs; also called FITC-RLYE

IC50 of VEGF-induced HUVEC migration (transwell) [2]: 0.06 nM | IC50 of VEGF-induced HUVEC proliferation ([3H]-thymidine incorporation) [2]: 0.08 nM | Kd (rhVEGFR-2): 9 µM
B3: RLYE peptide (SEQ ID NO: 2) (peptide)
peptide: RLYE
notes: Unlabelled synthetic tetrapeptide, analyte in the SPR assay and used in the cell assays
